Source: patent publication US20260242478A1 (published 2026)
Where no end group is shown, it is not given here.

Experiments:
anti-CD28 Fab = assay: competition ELISA, peptide titrated 0-100 uM against 1 nM anti-CD28 Fab, plate-bound CD28 as competitor
[1] = target: T1, Anti-PSMA Fab (SEQ ID NOs: 19, 20); assay: phage binding ELISA; biotinylated anti-PSMA Fab captured on neutravidin plate, clonal phage supernatant, anti-M13 HRP detection
T1 construct: Biotinylated and captured on neutravidin coated plates in the phage ELISA; also called 006 PSMA Fab

[2] = target: T1, Anti-PSMA Fab (SEQ ID NOs: 19, 20); assay: phage binding ELISA; Fab-coated wells pre-incubated with PSMA antigen (competitor: PSMA), then clonal phage, anti-M13 HRP detection
Ab-15 [3] = assay: BLI (Octet): sensor loaded with 200 nM biotinylated peptide, 100 nM Ab-15;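 further: binding association and dissociation tracked in real time, fitted to a 1:1 binding model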
Ab-15 [4] = assay: competition ELISA: peptide titrated against 1 nM Ab-15; competitor plate-bound CD28
Ab-15 [5] = assay: binding ELISA: biotinylated peptide on neutravidin plate, Ab-15 titrated

Binder: TCAAGATWSWPACF [Peptide-142]
- IC50 (anti-CD28 Fab): 620 nM

Binder: TCAAGAAWGWPLCF [Peptide-143]
- IC50 (anti-CD28 Fab): 2560 nM

Binder: PLCGTEEVWWECRL (tested as crude phage supernatant) [Phage-1728 (clonal phage displaying the peptide of SEQ ID NO: 2012)]
- Anti-PSMA Fab (SEQ ID NOs: 19, 20) signal [1]: 1.57
- Anti-PSMA Fab signal in the presence of PSMA [2]: 0.0694

Binder: SCSAGAHYPWPQCF [Peptide-148]
- IC50 (anti-CD28 Fab): 5670 nM

Binder: TCSAGATWAWPLCF [Peptide-152]
- IC50 (anti-CD28 Fab): 2220 nM

Binder: TCSAGAHYPWPICL [Peptide-150]
- IC50 (anti-CD28 Fab): 4760 nM

Binder: LCAAGATYPWPLCL [Peptide-144]
- IC50 (anti-CD28 Fab): 3040 nM

Binder: LCAAGATYPWPTCL [Peptide-147]
- IC50 (anti-CD28 Fab): 8150 nM

Binder: TCSAGATYEWPRCL [Peptide-149]
- IC50 (anti-CD28 Fab): 2660 nM

Binder: ACHSLVLKHHLQKC (tested as crude phage supernatant) [Phage-1738 (clonal phage displaying the peptide of SEQ ID NO: 2022)]
- Anti-PSMA Fab (SEQ ID NOs: 19, 20) signal [1]: 1.18
- Anti-PSMA Fab signal in the presence of PSMA [2]: 0.0624

Binder: ADWCPRDLWVHCFA (cysteine pairing not given here; also: biotinylated, site not given here, CD28 peptide mask) [Peptide-52]
- Octet signal (Ab-15 [3]): 0.7
- t1/2 (Ab-15 [3]): 3.1 min
- IC50 (Ab-15 [4]): 2000 nM
- EC50 (Ab-15 [5]): 75.9 nM

Binder: DDWCPRDLWVHCFA (cysteine pairing not given here; also: biotinylated, site not given here, CD28 peptide mask) [Peptide-55]
- Octet signal (Ab-15 [3]): 0.461
- t1/2 (Ab-15 [3]): 4.2 min
- IC50 (Ab-15 [4]): 4460 nM
- EC50 (Ab-15 [5]): 86.8 nM

Binder: LDWCPRDLWVHCFA (cysteine pairing not given here; also: biotinylated, site not given here, CD28 peptide mask) [Peptide-61]
- Octet signal (Ab-15 [3]): 1.37
- t1/2 (Ab-15 [3]): 4.5 min
- IC50 (Ab-15 [4]): 630 nM
- EC50 (Ab-15 [5]): 23.4 nM

Binder: VDWCPRDLWVHCFA (cysteine pairing not given here; also: biotinylated, site not given here, CD28 peptide mask) [Peptide-69]
- Octet signal (Ab-15 [3]): 0.919
- t1/2 (Ab-15 [3]): 2.9 min
- IC50 (Ab-15 [4]): 4420 nM
- EC50 (Ab-15 [5]): 32.5 nM

Binder: NDWCPRDLWVHCFA (cysteine pairing not given here; also: biotinylated, site not given here, CD28 peptide mask) [Peptide-54]
- Octet signal (Ab-15 [3]): 0.434
- t1/2 (Ab-15 [3]): 4 min
- IC50 (Ab-15 [4]): 5030 nM
- EC50 (Ab-15 [5]): 84.3 nM

Binder: IDWCPRDLWVHCFA (cysteine pairing not given here; also: biotinylated, site not given here, CD28 peptide mask) [Peptide-60]
- Octet signal (Ab-15 [3]): 0.845
- t1/2 (Ab-15 [3]): 3.1 min
- IC50 (Ab-15 [4]): 2660 nM
- EC50 (Ab-15 [5]): 44.9 nM

Binder: PDWCPRDLWVHCFA (cysteine pairing not given here; also: biotinylated, site not given here, CD28 peptide mask) [Peptide-64]
- Octet signal (Ab-15 [3]): 0.328
- t1/2 (Ab-15 [3]): 3.4 min
- IC50 (Ab-15 [4]): 8340 nM
- EC50 (Ab-15 [5]): 102 nM

Binder: FDWCPRDLWVHCFA (cysteine pairing not given here; also: biotinylated, site not given here, CD28 peptide mask) [Peptide-63]
- Octet signal (Ab-15 [3]): 1.01
- t1/2 (Ab-15 [3]): 3.3 min
- IC50 (Ab-15 [4]): 780 nM
- EC50 (Ab-15 [5]): 39.3 nM

Binder: GDWCPRDLWVHCFA (cysteine pairing not given here; also: biotinylated, site not given here, CD28 peptide mask) [Peptide-58]
- Octet signal (Ab-15 [3]): 0.479
- t1/2 (Ab-15 [3]): 3.9 min
- IC50 (Ab-15 [4]): 7060 nM
- EC50 (Ab-15 [5]): 73.9 nM

Binder: YDWCPRDLWVHCFA (cysteine pairing not given here; also: biotinylated, site not given here, CD28 peptide mask) [Peptide-68]
- Octet signal (Ab-15 [3]): 0.849
- t1/2 (Ab-15 [3]): 2.9 min
- IC50 (Ab-15 [4]): 3250 nM
- EC50 (Ab-15 [5]): 32.2 nM

Binder: WDWCPRDLWVHCFA (cysteine pairing not given here; also: biotinylated, site not given here, CD28 peptide mask) [Peptide-67]
- Octet signal (Ab-15 [3]): 1.15
- t1/2 (Ab-15 [3]): 4.1 min
- IC50 (Ab-15 [4]): 2800 nM
- EC50 (Ab-15 [5]): 21.7 nM

Binder: HDWCPRDLWVHCFA (cysteine pairing not given here; also: biotinylated, site not given here, CD28 peptide mask) [Peptide-59]
- Octet signal (Ab-15 [3]): 0.737
- t1/2 (Ab-15 [3]): 3 min
- IC50 (Ab-15 [4]): 2180 nM
- EC50 (Ab-15 [5]): 45.4 nM

Binder: SDWCPRDLWVHCFA (cysteine pairing not given here; also: biotinylated, site not given here, CD28 peptide mask) [Peptide-65]
- Octet signal (Ab-15 [3]): 0.551
- t1/2 (Ab-15 [3]): 2.9 min
- IC50 (Ab-15 [4]): 2630 nM
- EC50 (Ab-15 [5]): 66.5 nM

Binder: LCAAGASWPWPVCL [Peptide-138]
- IC50 (anti-CD28 Fab): 3610 nM

Binder: NCFFAADIHWNFCT (tested as crude phage supernatant) [Phage-1731 (clonal phage displaying the peptide of SEQ ID NO: 2015)]
- Anti-PSMA Fab (SEQ ID NOs: 19, 20) signal [1]: 1.48
- Anti-PSMA Fab signal in the presence of PSMA [2]: 0.18

Binder: TCAAGAAWPWPQCL [Peptide-140]
- IC50 (anti-CD28 Fab): 760 nM

Binder: TCSAGASYPWPLCL [Peptide-139]
- IC50 (anti-CD28 Fab): 2190 nM

Binder: TCSAGAAYPWPLCL [Peptide-145]
- IC50 (anti-CD28 Fab): 7700 nM

Binder: FCGWMDGDVFWFCG (tested as crude phage supernatant) [Phage-1733 (clonal phage displaying the peptide of SEQ ID NO: 2017)]
- Anti-PSMA Fab (SEQ ID NOs: 19, 20) signal [1]: 0.428
- Anti-PSMA Fab signal in the presence of PSMA [2]: 0.145

Binder: FGHCAGSPVFCAYW (tested as crude phage supernatant) [Phage-1730 (clonal phage displaying the peptide of SEQ ID NO: 2014)]
- Anti-PSMA Fab (SEQ ID NOs: 19, 20) signal [1]: 1.06
- Anti-PSMA Fab signal in the presence of PSMA [2]: 0.054

Binder: FVPCIPSHWLCPIW (tested as crude phage supernatant) [Phage-1741 (clonal phage displaying the peptide of SEQ ID NO: 2037)]
- Anti-PSMA Fab (SEQ ID NOs: 19, 20) signal [1]: 1.05
- Anti-PSMA Fab signal in the presence of PSMA [2]: 0.292

Binder: TCAAGAHYPWPACL [Peptide-154]
- IC50 (anti-CD28 Fab): 2200 nM

Binder: FCNWVDGDVWVVCK (tested as crude phage supernatant) [Phage-1734 (clonal phage displaying the peptide of SEQ ID NO: 2018)]
- Anti-PSMA Fab (SEQ ID NOs: 19, 20) signal [1]: 0.51
- Anti-PSMA Fab signal in the presence of PSMA [2]: 0.0607

Binder: TCSAGATYTWPKCF [Peptide-141]
- IC50 (anti-CD28 Fab): 2220 nM

Binder: HCKFHDYHSWYMCY (tested as crude phage supernatant) [Phage-1737 (clonal phage displaying the peptide of SEQ ID NO: 2021)]
- Anti-PSMA Fab (SEQ ID NOs: 19, 20) signal [1]: 1.58
- Anti-PSMA Fab signal in the presence of PSMA [2]: 0.117

Binder: FCQWIEATNAWLCY (tested as crude phage supernatant) [Phage-1732 (clonal phage displaying the peptide of SEQ ID NO: 2016)]
- Anti-PSMA Fab (SEQ ID NOs: 19, 20) signal [1]: 1.06
- Anti-PSMA Fab signal in the presence of PSMA [2]: 0.119

Binder: NAHCWLWVPAHCRV (tested as crude phage supernatant) [Phage-1729 (clonal phage displaying the peptide of SEQ ID NO: 2013)]
- Anti-PSMA Fab (SEQ ID NOs: 19, 20) signal [1]: 1.35
- Anti-PSMA Fab signal in the presence of PSMA [2]: 0.0672

Binder: SCSAGAAYYWPWCL [Peptide-151]
- IC50 (anti-CD28 Fab): 80500 nM

Binder: MEYCSFHRFTCVLW (tested as crude phage supernatant) [Phage-1736 (clonal phage displaying the peptide of SEQ ID NO: 2020)]
- Anti-PSMA Fab (SEQ ID NOs: 19, 20) signal [1]: 1.74
- Anti-PSMA Fab signal in the presence of PSMA [2]: 0.12

Binder: TCSAGAAYSWPACF [Peptide-146]
- IC50 (anti-CD28 Fab): 16100 nM

Binder: SCGWLRGEEFGWWC (tested as crude phage supernatant) [Phage-1739 (clonal phage displaying the peptide of SEQ ID NO: 2023)]
- Anti-PSMA Fab (SEQ ID NOs: 19, 20) signal [1]: 0.891
- Anti-PSMA Fab signal in the presence of PSMA [2]: 0.0625

Binder: EGCLTLVDGRAWCW (tested as crude phage supernatant) [Phage-1735 (clonal phage displaying the peptide of SEQ ID NO: 2019)]
- Anti-PSMA Fab (SEQ ID NOs: 19, 20) signal [1]: 1.05
- Anti-PSMA Fab signal in the presence of PSMA [2]: 0.0521

Binder: TCSAGATWPWPICL [Peptide-137]
- IC50 (anti-CD28 Fab): 890 nM

Binder: PDCVYHSFWGYSCR (tested as crude phage supernatant) [Phage-1740 (clonal phage displaying the peptide of SEQ ID NO: 2024)]
- Anti-PSMA Fab (SEQ ID NOs: 19, 20) signal [1]: 0.583
- Anti-PSMA Fab signal in the presence of PSMA [2]: 0.0641

Binder: TCAAGATYLWPTCL [Peptide-153]
- IC50 (anti-CD28 Fab): 8420 nM
